Source: PMC9820303, “^αN-Acetyl β-Endorphin Is an Endogenous Ligand of σ1Rs That Regulates Mu-Opioid Receptor Signaling by Exchanging G Proteins for σ2Rs in σ1R Oligomers” (International Journal of Molecular Sciences, 2022)

Target: T1, σ1R oligomers-G proteins (Gi2, Go, Gq-11, Gz) (Mus musculus, UniProt O55242)
T1 construct: The coding region of the full-length murine σ1R (AF004927); GST (N); made in house; host or cells: E. coli BL21 (KRX) for σ1R; the G proteins come from solubilised mouse cerebral cortex synaptosomal membranes
T1 sequence (O55242 whole entry): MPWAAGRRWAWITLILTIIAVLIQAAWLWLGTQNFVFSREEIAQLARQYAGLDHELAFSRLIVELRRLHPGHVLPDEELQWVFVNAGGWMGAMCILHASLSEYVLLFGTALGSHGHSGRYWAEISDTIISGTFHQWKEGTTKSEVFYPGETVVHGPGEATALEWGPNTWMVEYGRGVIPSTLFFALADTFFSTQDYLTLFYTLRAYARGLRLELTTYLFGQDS
Assay: Ex vivo fishing assay: G proteins of mouse solubilized brain membranes (SBM) bound to agarose-σ1R oligomers
Format: biochemical
Conditions: for effect on G protein binding to agarose-σ1R oligomers: 2 h, increasing concentrations, n = 3
Method: (A) The effect of σ1R deletion on opioid- and cannabinoid-induced analgesia. Analgesic compounds were icv-injected into wild-type and σ1R^−/− mice, and analgesia was evaluated 30 min after morphine (3 nmol) and β-End 1–31 (0.5 nmol), 15 min after DAMGO (0.1 nmol) and DPDPE (10 nmol) and 10 min after WIN55,212-2 (15 nmol). The bars are the mean ± SD of eight mice per strain and treatment. * Significant difference with respect to the effect of the analgesic substance in the wild-type group. ANOVA followed by the Holm–Sidak multiple comparisons test, p < 0.05, 1-β > 0.80. (B) Coprecipitation of G proteins with MORs. Solubilized mouse brain cortical membranes enriched in synaptosomes (SBM) from CD1 wild-type (WT) and σ1R^−/− mice were solubilized with sonication in the presence of 1% NP-40. Non-soluble debris was eliminated, and the samples were then incubated overnight at 4 °C with affinity-purified biotinylated IgGs that were raised against extracellular regions of the MOR. Protein complexes that were immunoprecipitated with streptavidin agarose were extensively washed and then resolved by SDS-PAGE. The target G proteins, alpha and beta subunits, were visualized by Western blotting (for further details, see Section 4). IP: immunoprecipitated protein, WB: Western blot. Detection of MORs: these proteins were detected with an anti-MOR antibody directed to the C-terminal sequence, a different amino acid sequence than that used for immunoprecipitation (second extracellular loop-2EL). In parallel blots, an antibody directed to the light IgG chain of the anti-MOR antibodies used for immunoprecipitation of MORs provided a loading control for the samples in the gels. […] The immunosignals of Gα subunits coprecipitated with MORs were referred to those of the MORs. Data are the mean ± SD of three determinations. ANOVA followed by the Holm–Sidak multiple comparisons test, p < 0.05, 1-β > 0.80. (C) Pull-down assays using mouse SBM. Cerebral cortex fractions enriched in synaptosomes from CD1 WT mice were solubilized with RIPA buffer and incubated for 2 h with recombinant σ1Rs covalently attached to agarose-NHS (Θ-σ1R). Agarose pellets containing the bound proteins were resolved by SDS-PAGE, and the G protein α subunits were probed in Western blots. The capture of σ1Rs and σ2Rs by Θ-σ1R was also determined in SBM from WT, σ1R^−/− and σ2R^−/− mice. […] Representative blots are shown. (D) Effect of ligands on the association of endogenous G proteins present in mouse SBM with Θ-σ1R oligomers produced in vitro (see Section 4). The Θ-σ1Rs were incubated with the SBM in the absence and presence of increasing concentrations of σ1R ligands. The G proteins that remained bound to Θ-σ1R oligomers were determined as in (C). […] For each compound and concentration studied data are the mean ± SD, n = 3. Data were analyzed by pairwise Holm–Sidak multiple comparison tests following ANOVA: p < 0.05, 1-β > 0.80.
For fishing studies, solubilization of neural synaptosomes from cerebral cortices or PAG was carried out at 4 °C in RIPA buffer. The membranes were incubated at 4 °C for 16 h with agitation, and then centrifuged at 10,000× g for 5 min. The supernatant was cleared with 20 μL of Sepharose 4B (#17-0120-01, GE Healthcare) pre-equilibrated for 1 h at 4 °C, followed by centrifugation at 4300× g for 5 min. The σ1R was immobilized through covalent attachment to N-Hydroxysuccinimide (NHS)-activated Sepharose 4 fast flow (4FF, #17-0906-01; GE) according to the manufacturer’s instructions.

Compound | release of G proteins from σ1R oligomers in the absence of σ2Rs (SBM from σ2R−/− mice) | concentrations needed for Gz to be freed from σ1R oligomers (wild-type SBM) | concentrations releasing Go, Gq-11 and Gi2 proteins from σ1R oligomers (wild-type SBM) | effect on G protein binding to agarose-σ1R oligomers (wild-type SBM)
^αN-acetyl β-End 1–31: β-End 1–31 acetylated at N terminal Y1, α position | failed to release G proteins from σ1R oligomers | pM concentrations | fM concentrations | efficiently released G proteins from agarose-σ1Rs
β-End 1–27: β-End 1–31 derivative without 4 C-terminal residues (YGGFMTSEKSQTPLVTLFKNAIIKNAY; Beta-endorphin; UniProt P01189 237-263, looked up, fragment) | – | – | – | showed G-protein-releasing effects
Cl.O=C(OCCN1CCOCC1)C1(c2ccccc2)CCCCC1 [PRE084, 2-(4-morpholinethyl)-1-phenylcyclohexanecarboxylate hydrochloride, reference compound] | – | – | – | did not disrupt G protein binding to σ1R oligomers but increased the binding to Gz proteins
Cc1cc(OCCN2CCOCC2)nn1-c1ccc2ccccc2c1 [S1RA] | – | – | – | exhibited G-protein-releasing effects
KKGE [β-End 28–31, C-terminal tetrapeptide of β-End 1–31] | – | – | – | showed G-protein-releasing effects
β-End 1–26: β-End 1–31 derivative without 5 C-terminal residues (YGGFMTSEKSQTPLVTLFKNAIIKNA; Beta-endorphin; UniProt P01189 237-262, looked up, fragment) | – | – | – | showed G-protein-releasing effects
